Measured values: article PMC8695382 (Nature, 2021)
Each block holds one binder with its values, some of them ahead of it.

B3: Mcm5 (natural protein, Saccharomyces cerevisiae)
chain: MSFDRPEIYSAPVLQGESPNDDDNTEIIKSFKNFILEFRLDSQFIYRDQLRNNILVKNYSLTVNMEHLIGYNEDIYKKLSDEPSDIIPLFETAITQVAKRISILSRAQSANNNDKDPENTSMDTDSLLLNSLPTFQLILNSNANQIPLRDLDSEHVSKIVRLSGIIISTSVLSSRATYLSIMCRNCRHTTSITINNFNSITGNTVSLPRSCLSTIESESSMANESNIGDESTKKNCGPDPYIIIHESSKFIDQQFLKLQEIPELVPVGEMPRNLTMTCDRYLTNKVIPGTRVTIVGIYSIYNSKNGAGSGRSGGGNGGSGVAIRTPYIKILGIQSDVETSSIWNSVTMFTEEEEEEFLQLSRNPKLYEILTNSIAPSIFGNEDIKKAIVCLLMGGSKKILPDGMRLRGDINVLLLGDPGTAKSQLLKFVEKVSPIAVYTSGKGSSAAGLTASVQRDPMTREFYLEGGAMVLADGGVVCIDEFDKMRDEDRVAIHEAMEQQTISIAKAGITTVLNSRTSVLAAANPIYGRYDDLKSPGDNIDFQTTILSRFDMIFIVKDDHNEERDISIANHVINIHTGNANAMQNQQEENGSEISIEKMKRYITYCRLKCAPRLSPQAAEKLSSNFVTIRKQLLINELESTERSSIPITIRQLEAIIRITESLAKLELSPIAQERHVDEAIRLFQASTMDAASQDPIGGLNQASGTSLSEIRRFEQELKRRLPIGWSTSYQTLRREFVDTHRFSQLALDKALYALEKHETIQLRHQGQNIYRSGV
notes: Mcm5, S. cerevisiae; Subunit of m2; source: purified as part of CMG

Assays:
Test in all cases: cryo-EM structure; yeast replisome–SCF^Dia2 complexes after gradient fixation; particles translocated onto dsDNA (conformations I and II)
Conditions in all cases: both partners purified
Mcm3 = molecular target: T1, Mcm3 (Saccharomyces cerevisiae, UniProt P24279 1-971)
T1 construct: Mcm3, S. cerevisiae; Subunit of m2; source: purified as part of CMG
T1 sequence (P24279 whole entry): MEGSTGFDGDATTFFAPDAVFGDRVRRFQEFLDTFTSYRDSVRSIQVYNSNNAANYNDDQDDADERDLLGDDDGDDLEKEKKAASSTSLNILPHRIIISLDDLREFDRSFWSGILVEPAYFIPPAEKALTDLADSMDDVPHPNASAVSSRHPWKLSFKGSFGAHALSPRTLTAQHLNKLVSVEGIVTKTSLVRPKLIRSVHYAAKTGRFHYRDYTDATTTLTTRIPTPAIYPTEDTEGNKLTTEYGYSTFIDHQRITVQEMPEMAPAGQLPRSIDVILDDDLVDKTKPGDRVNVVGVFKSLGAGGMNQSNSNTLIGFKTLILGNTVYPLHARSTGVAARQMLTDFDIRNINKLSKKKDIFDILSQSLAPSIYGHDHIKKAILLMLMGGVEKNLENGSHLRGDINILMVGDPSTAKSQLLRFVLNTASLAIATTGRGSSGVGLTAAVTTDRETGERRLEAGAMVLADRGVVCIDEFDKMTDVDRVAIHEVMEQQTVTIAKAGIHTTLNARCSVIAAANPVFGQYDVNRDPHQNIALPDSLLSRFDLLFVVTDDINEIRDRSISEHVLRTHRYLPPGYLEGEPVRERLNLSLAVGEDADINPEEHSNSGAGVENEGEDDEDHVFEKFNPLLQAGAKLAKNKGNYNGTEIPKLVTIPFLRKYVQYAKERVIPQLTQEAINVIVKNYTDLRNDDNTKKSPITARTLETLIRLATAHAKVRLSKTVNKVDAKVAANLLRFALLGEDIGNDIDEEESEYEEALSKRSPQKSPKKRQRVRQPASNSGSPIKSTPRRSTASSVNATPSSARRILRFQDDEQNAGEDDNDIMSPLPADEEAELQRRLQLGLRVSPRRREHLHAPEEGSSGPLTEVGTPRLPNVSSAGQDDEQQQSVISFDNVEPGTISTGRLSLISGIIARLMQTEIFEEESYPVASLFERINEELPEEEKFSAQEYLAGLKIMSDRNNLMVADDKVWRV

Mcm5 = molecular target: B3
Pol2 = molecular target: T2, Pol2 (Saccharomyces cerevisiae, UniProt P21951 1-2222)
T2 construct: Pol2, catalytic subunit of DNA polymerase ε, S. cerevisiae; catalytic domain ends at residue 1186, non-catalytic domain begins at residue 1321; Subunit of m15; source: purified as part of Pol-ε
T2 sequence (P21951 whole entry, the tested form may be a part): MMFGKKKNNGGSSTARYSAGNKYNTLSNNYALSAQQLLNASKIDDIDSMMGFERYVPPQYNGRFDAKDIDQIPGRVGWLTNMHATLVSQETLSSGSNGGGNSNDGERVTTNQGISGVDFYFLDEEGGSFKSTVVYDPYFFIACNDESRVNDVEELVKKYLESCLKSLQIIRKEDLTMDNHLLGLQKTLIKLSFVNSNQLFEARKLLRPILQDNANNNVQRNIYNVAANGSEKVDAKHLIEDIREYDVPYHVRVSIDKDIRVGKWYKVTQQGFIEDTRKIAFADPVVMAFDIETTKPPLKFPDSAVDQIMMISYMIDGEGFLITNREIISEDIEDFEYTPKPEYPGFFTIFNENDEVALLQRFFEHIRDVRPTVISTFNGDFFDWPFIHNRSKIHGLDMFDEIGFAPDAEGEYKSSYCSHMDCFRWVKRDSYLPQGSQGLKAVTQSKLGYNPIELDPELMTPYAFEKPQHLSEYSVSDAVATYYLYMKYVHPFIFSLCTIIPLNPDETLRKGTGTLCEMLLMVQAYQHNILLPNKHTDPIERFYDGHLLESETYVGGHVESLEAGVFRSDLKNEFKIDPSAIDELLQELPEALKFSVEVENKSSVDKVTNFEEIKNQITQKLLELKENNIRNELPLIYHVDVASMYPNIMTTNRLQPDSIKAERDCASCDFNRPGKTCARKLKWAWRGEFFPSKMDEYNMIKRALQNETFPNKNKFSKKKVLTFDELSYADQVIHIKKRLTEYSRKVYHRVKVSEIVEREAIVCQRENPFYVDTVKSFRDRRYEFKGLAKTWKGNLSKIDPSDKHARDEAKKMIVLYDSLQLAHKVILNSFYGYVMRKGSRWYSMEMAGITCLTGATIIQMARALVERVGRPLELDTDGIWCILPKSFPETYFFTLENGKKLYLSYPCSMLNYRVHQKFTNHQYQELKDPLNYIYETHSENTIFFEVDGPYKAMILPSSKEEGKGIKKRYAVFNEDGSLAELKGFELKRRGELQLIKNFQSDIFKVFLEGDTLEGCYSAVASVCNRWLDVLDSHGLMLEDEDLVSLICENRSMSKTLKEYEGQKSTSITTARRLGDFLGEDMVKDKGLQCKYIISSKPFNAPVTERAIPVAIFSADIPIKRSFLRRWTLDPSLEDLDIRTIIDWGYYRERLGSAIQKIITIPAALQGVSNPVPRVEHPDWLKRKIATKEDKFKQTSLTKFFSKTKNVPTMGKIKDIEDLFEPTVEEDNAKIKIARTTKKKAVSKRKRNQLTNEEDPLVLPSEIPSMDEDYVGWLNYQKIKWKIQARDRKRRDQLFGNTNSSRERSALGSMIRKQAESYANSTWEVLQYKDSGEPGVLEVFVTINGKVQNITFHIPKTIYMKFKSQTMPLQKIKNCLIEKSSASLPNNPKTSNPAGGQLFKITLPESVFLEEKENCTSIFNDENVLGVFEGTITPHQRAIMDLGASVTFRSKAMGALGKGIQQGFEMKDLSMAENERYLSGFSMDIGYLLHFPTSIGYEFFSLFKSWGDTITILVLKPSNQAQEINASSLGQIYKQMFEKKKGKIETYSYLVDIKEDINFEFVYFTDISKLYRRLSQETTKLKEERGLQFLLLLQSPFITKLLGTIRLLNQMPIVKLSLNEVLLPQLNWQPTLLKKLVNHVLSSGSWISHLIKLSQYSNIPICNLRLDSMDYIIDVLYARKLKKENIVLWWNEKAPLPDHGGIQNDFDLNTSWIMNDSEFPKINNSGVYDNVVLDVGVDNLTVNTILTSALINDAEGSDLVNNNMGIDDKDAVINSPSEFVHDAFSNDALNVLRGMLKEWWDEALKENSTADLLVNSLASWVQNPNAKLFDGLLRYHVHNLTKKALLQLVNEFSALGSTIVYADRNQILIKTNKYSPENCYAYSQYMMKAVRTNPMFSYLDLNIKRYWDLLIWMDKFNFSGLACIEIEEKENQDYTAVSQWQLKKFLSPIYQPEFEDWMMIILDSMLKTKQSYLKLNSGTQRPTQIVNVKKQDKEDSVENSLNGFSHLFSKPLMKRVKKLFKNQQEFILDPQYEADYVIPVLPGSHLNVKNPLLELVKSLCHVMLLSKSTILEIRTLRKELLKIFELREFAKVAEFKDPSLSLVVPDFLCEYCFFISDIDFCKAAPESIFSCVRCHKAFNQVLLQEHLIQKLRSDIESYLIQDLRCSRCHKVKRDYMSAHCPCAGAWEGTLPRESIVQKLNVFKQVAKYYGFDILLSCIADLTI

Dia2 = molecular target: T3, Dia2 (Saccharomyces cerevisiae, UniProt Q08496 1-732)
T3 construct: Dia2, F-box protein, S. cerevisiae; model built for F-box (211–247), LRRs (248–716) and C-terminal tail (717–732); N-terminal TPR domain not visible; Subunit of m1 as it stands in the cryo-EM samples; also called Dia2^LRR (its leucine-rich repeat domain); source: purified as part of SCF^Dia2
T3 sequence: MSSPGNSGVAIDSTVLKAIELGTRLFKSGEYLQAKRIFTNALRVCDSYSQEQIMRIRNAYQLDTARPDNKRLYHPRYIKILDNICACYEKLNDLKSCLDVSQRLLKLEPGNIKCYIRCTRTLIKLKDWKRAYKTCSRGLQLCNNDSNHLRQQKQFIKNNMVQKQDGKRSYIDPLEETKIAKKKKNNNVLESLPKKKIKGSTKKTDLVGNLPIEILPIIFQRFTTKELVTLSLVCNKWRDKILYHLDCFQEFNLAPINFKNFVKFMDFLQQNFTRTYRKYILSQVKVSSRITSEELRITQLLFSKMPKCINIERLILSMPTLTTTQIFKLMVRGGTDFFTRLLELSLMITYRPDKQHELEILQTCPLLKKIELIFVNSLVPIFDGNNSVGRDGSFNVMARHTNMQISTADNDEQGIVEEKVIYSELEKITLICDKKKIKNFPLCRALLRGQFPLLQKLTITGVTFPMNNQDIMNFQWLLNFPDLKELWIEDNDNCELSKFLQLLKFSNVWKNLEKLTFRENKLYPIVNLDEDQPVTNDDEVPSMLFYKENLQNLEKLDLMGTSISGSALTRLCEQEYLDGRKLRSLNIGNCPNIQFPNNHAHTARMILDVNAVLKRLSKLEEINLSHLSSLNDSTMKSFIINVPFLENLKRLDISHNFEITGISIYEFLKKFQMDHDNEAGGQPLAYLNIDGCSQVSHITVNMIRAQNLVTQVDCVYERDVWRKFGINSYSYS

B1: Mcm7 (natural protein, Saccharomyces cerevisiae)
chain: MSAALPSIQLPVDYNNLFNEITDFLVTFKQDTLSSDATRNENEDENLDAENIEQHLLEKGPKYMAMLQKVANRELNSVIIDLDDILQYQNEKFLQGTQADDLVSAIQQNANHFTELFCRAIDNNMPLPTKEIDYKDDVLDVILNQRRLRNERMLSDRTNEIRSENLMDTTMDPPSSMNDALREVVEDETELFPPNLTRRYFLYFKPLSQNCARRYRKKAISSKPLSVRQIKGDFLGQLITVRGIITRVSDVKPAVEVIAYTCDQCGYEVFQEVNSRTFTPLSECTSEECSQNQTKGQLFMSTRASKFSAFQECKIQELSQQVPVGHIPRSLNIHVNGTLVRSLSPGDIVDVTGIFLPAPYTGFKALKAGLLTETYLEAQFVRQHKKKFASFSLTSDVEERVMELITSGDVYNRLAKSIAPEIYGNLDVKKALLLLLVGGVDKRVGDGMKIRGDINVCLMGDPGVAKSQLLKAICKISPRGVYTTGKGSSGVGLTAAVMKDPVTDEMILEGGALVLADNGICCIDEFDKMDESDRTAIHEVMEQQTISISKAGINTTLNARTSILAAANPLYGRYNPRLSPLDNINLPAALLSRFDILFLMLDIPSRDDDEKLAEHVTYVHMHNKQPDLDFTPVEPSKMREYIAYAKTKRPVMSEAVNDYVVQAYIRLRQDSKREMDSKFSFGQATPRTLLGIIRLSQALAKLRLADMVDIDDVEEALRLVRVSKESLYQETNKSKEDESPTTKIFTIIKKMLQETGKNTLSYENIVKTVRLRGFTMLQLSNCIQEYSYLNVWHLINEGNTLKFVDDGTMDTDQEDSLVSTPKLAPQTTASANVSAQDSDIDLQDA
notes: Mcm7, S. cerevisiae; Subunit of m2; source: purified as part of CMG
binding result (Mcm3): binds

B2: Dpb2 (natural protein, Saccharomyces cerevisiae)
chain: MFGSGNVLPVKIQPPLLRPLAYRVLSRKYGLSIKSDGLSALAEFVGTNIGANWRQGPATIKFLEQFAAVWKQQERGLFIDQSGVKEVIQEMKEREKVEWSHEHPIQHEENILGRTDDDENNSDDEMPIAADSSLQNVSLSSPMRQPTERDEYKQPFKPESSKALDWRDYFKVINASQQQRFSYNPHKMQFIFVPNKKQNGLGGIAGFLPDIEDKVQMFLTRYYLTNDRVMRNENFQNSDMFNPLSSMVSLQNELSNTNRQQQSSSMSITPIKNLLGRDAQNFLLLGLLNKNFKGNWSLEDPSGSVEIDISQTIPTQGHYYVPGCMVLVEGIYYSVGNKFHVTSMTLPPGERREITLETIGNLDLLGIHGISNNNFIARLDKDLKIRLHLLEKELTDHKFVILGANLFLDDLKIMTALSKILQKLNDDPPTLLIWQGSFTSVPVFASMSSRNISSSTQFKNNFDALATLLSRFDNLTENTTMIFIPGPNDLWGSMVSLGASGTLPQDPIPSAFTKKINKVCKNVVWSSNPTRIAYLSQEIVIFRDDLSGRFKRHRLEFPFNESEDVYTENDNMMSKDTDIVPIDELVKEPDQLPQKVQETRKLVKTILDQGHLSPFLDSLRPISWDLDHTLTLCPIPSTMVLCDTTSAQFDLTYNGCKVINPGSFIHNRRARYMEYVPSSKKTIQEEIYI
notes: Dpb2, subunit of DNA polymerase ε, S. cerevisiae; Subunit of m15; source: purified as part of Pol-ε
binding result (Mcm5): binds

Binder: B3
binding result (Pol2): binds

Other lines, results leading:

binding result (Pol2): binds
B4: Mcm2 (natural protein, Saccharomyces cerevisiae)
chain: MSDNRRRRREEDDSDSENELPPSSPQQHFRGGMNPVSSPIGSPDMINPEGDDNEVDDVPDIDEVEEQMNEVDLMDDNMYEDYAADHNRDRYDPDQVDDREQQELSLSERRRIDAQLNERDRLLRNVAYIDDEDEEQEGAAQLDEMGLPVQRRRRRRQYEDLENSDDDLLSDMDIDPLREELTLESLSNVKANSYSEWITQPNVSRTIARELKSFLLEYTDETGRSVYGARIRTLGEMNSESLEVNYRHLAESKAILALFLAKCPEEMLKIFDLVAMEATELHYPDYARIHSEIHVRISDFPTIYSLRELRESNLSSLVRVTGVVTRRTGVFPQLKYVKFNCLKCGSILGPFFQDSNEEIRISFCTNCKSKGPFRVNGEKTVYRNYQRVTLQEAPGTVPPGRLPRHREVILLADLVDVSKPGEEVEVTGIYKNNYDGNLNAKNGFPVFATIIEANSIKRREGNTANEGEEGLDVFSWTEEEEREFRKISRDRGIIDKIISSMAPSIYGHRDIKTAVACSLFGGVPKNVNGKHSIRGDINVLLLGDPGTAKSQILKYVEKTAHRAVFATGQGASAVGLTASVRKDPITKEWTLEGGALVLADKGVCLIDEFDKMNDQDRTSIHEAMEQQSISISKAGIVTTLQARCSIIAAANPNGGRYNSTLPLAQNVSLTEPILSRFDILCVVRDLVDEEADERLATFVVDSHVRSHPENDEDREGEELKNNGESAIEQGEDEINEQLNARQRRLQRQRKKEEEISPIPQELLMKYIHYARTKIYPKLHQMDMDKVSRVYADLRRESISTGSFPITVRHLESILRIAESFAKMRLSEFVSSYDLDRAIKVVVDSFVDAQKVSVRRQLRRSFAIYTLGH
notes: Mcm2, S. cerevisiae; Subunit of m2; source: purified as part of CMG

binding result (Dia2): binds
B5: Csm3 (natural protein, Saccharomyces cerevisiae)
chain: MDQDFDSLLLGFNDSDSVQKDPTVPNGLDGSVVDPTIADPTAITARKRRPQVKLTAEKLLSDKGLPYVLKNAHKRIRISSKKNSYDNLSNIIQFYQLWAHELFPKAKFKDFMKICQTVGKTDPVLREYRVSLFRDEMGMSFDVGTRETGQDLERQSPMVEEHVTSAEERPIVADSFAQDKRNVNNVDYDNDEDDDIYHLSYRNRRGRVLDERGNNETVLNNVVPPKEDLDALLKTFRVQGPVGLEENEKKLLLGWLDAHRKMEKGSMTEEDVQLIQSLEEWEMNDIEGQHTHYDLLPGGDEFGVDQDELDAMKEMGF
notes: Csm3, S. cerevisiae; Subunit of m12; source: purified as part of Tof1–Csm3
